Data taken from patent publication US6451312.

Key:
human endoglin (human) [1] = target: human endoglin (human) (UniProt P17813); experiment: cell-based or functional assay
human endoglin (human) [2] = target: human endoglin (human) (UniProt P17813); experiment: FACS on HUVEC, half-maximal fluorescence
human endoglin (human) [3] = target: human endoglin (human) (UniProt P17813); experiment: FACS, corrected fluorescence intensity grade, U937
human endoglin (human) [4] = target: human endoglin (human) (UniProt P17813); experiment: FACS, corrected fluorescence intensity grade, HUVEC
human endoglin (human) [5] = target: human endoglin (human) (UniProt P17813); experiment: indirect immunofluorescence FACS on HUVEC, 10 µg/ml
human endoglin (human) [6] = target: human endoglin (human) (UniProt P17813); experiment: FACS, corrected fluorescence intensity grade, ECV-304
human endoglin (human) [7] = target: human endoglin (human) (UniProt P17813); experiment: FACS, corrected fluorescence intensity grade, A375M and T8
human endoglin (human) [8] = target: human endoglin (human) (UniProt P17813); experiment: FACS, corrected fluorescence intensity grade, HT-1080 and SAOS-2
human endoglin (human) [9] = target: human endoglin (human) (UniProt P17813); experiment: FACS, corrected fluorescence intensity grade, MDA-MB-231 and SKBR3
human endoglin (human) [10] = target: human endoglin (human) (UniProt P17813); experiment: FACS, corrected fluorescence intensity grade, L-endoglin transfectant
human endoglin (human) [11] = target: human endoglin (human) (UniProt P17813); experiment: FACS, 20 µg/ml TEC-11, sorted Endoglin^hi fraction of postconfluent HUVEC; SD in parentheses
human endoglin (human) [12] = target: human endoglin (human) (UniProt P17813); experiment: FACS, 20 µg/ml TEC-11, sorted Endoglin^lo fraction of postconfluent HUVEC; SD in parentheses
human endoglin (human) [13] = target: human endoglin (human) (UniProt P17813); experiment: competition FACS on HUVEC; unlabelled TEC-11 against biotinylated TEC-4 (competitor), ratio 1:1
human endoglin (human) [14] = target: human endoglin (human) (UniProt P17813); experiment: competition FACS on HUVEC; unlabelled TEC-4 against biotinylated TEC-11 (competitor), ratio 1:1
human endoglin (human) [15] = target: human endoglin (human) (UniProt P17813); experiment: competition FACS on HUVEC; unlabelled TEC-4 against biotinylated TEC-11 (competitor), ratio 1:100

Row | Substance | complement fixation relative to TEC-4 (human endoglin (human) [1]) | complement-mediated lysis of HUVEC (guinea pig complement, trypan blue) (human endoglin (human) [1]) | EC50 (human endoglin (human) [2]) | corrected fluorescence intensity (CFI) (human endoglin (human) [3]) | corrected fluorescence intensity (CFI) (human endoglin (human) [4]) | specific mean fluorescence intensity (MFI) (human endoglin (human) [5]) | corrected fluorescence intensity (CFI) (human endoglin (human) [6]) | corrected fluorescence intensity (CFI) (human endoglin (human) [7]) | corrected fluorescence intensity (CFI) (human endoglin (human) [8]) | corrected fluorescence intensity (CFI) (human endoglin (human) [9]) | corrected fluorescence intensity (CFI) (human endoglin (human) [10]) | MFI (human endoglin (human) [11]) | MFI (human endoglin (human) [12]) | percent blocking of biotinylated TEC-4 (human endoglin (human) [13]) | percent blocking of biotinylated TEC-11 (human endoglin (human) [14]) | percent blocking of biotinylated TEC-11 (human endoglin (human) [15])
1 | TEC-11 (tumor endothelial cell antibody 11) | 100 fold | > 50% | 0.4 µg/mL | 5 to 25 cfi | > 100 cfi | 200 | 25 to 50 cfi | 5 to 25 cfi | 5 to 25 cfi | 5 to 25 cfi | 50 to 100 cfi | 270 | 61.6 | 51% |  | 
2 | TEC-4 (tumor endothelial cell antibody 4) |  | 48% | 4 µg/mL | 5 to 25 cfi | > 100 cfi | 200 | 25 to 50 cfi | 5 to 25 cfi | 5 to 25 cfi | 5 to 25 cfi | 50 to 100 cfi |  |  |  | 1% | 20%
